Experimental data published in PMC13170487 (Journal of molecular biology, 2025).

Tests used:
[1] = target: CFTR-associated ligand (CAL) PDZ domain (UniProt Q9HD26-2 276-362); experiment: fluorescence polarisation
[2] = target: T1, Tax-interacting protein 1 (TIP-1), His10 tag cleaved (UniProt O14907 1-124); experiment: fluorescence polarisation
T1 sequence (looked up): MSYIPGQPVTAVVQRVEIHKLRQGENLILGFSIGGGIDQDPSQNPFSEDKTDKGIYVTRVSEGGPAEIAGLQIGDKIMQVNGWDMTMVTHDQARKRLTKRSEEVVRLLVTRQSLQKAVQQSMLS

Row | Binder | Ki [1] | Ki [2]
1 | WRFKKANSRWPTSII [BT-iCAL36] | 3.1 µM | 2.4 µM
2 | ANSRLPTSII [L-iCAL36] | – | > 1000 µM
3 | ANSRYPTSII [Y-iCAL36] | – | 390 µM
